Data on 3 compounds can be found in US20260224761A1, “DUAL LABELLED COMPOUNDS TARGETING THE PROSTATE SPECIFIC MEMBRANE ANTIGEN” (priority 2023, published 2026).

Series [1] in a line: Photophysical characterization (molar extinction coefficient, quantum yield, brightness) in human serum albumin solution. In kind it is physicochemical. The settings on record: for Brightness (HSA): multiplication of molar extinction coefficient and quantum yield. How it is done: (§1) Quantum yield, molar extinction coefficient and serum protein binding experiments were performed according to previously published procedures (Hensbergen A. W. et al., Dyes and Pigments, 2018, 152, 19-28).
Table 1 summarizes the photophysical properties of [^99mTc]PSMA-HSG, [^99mTc]mas3-Cy5(SO3)—EuK and [^99mTc]mas3-(SO3)Cy5(SO3)—EuK and of the different sulfonated Cy5-dyes used for their preparation. […] Because of this latter effect we analyzed the brightness (as multiplication of the molar extinction coefficient and the quantum yield) in humans serum albumin for all three hybrid PSMA agents included in this study (see Table 1). While we indeed see that increasing of the number of sulfonates on the cyanine dye has a positive effect on the brightness all remain within the same order of magnitude.
Because of this latter effect, we analyzed the brightness (as multiplication of the molar extinction coefficient and the quantum yield) in human serum albumin solution for all three hybrid PSMA agents included in this study (see Table 1). While we indeed see that increasing of the number of sulfonates on the cyanine dye has a positive effect on the brightness, all remain within the same order of magnitude.

The target of series [2] is T1, PSMA (Homo sapiens, UniProt Q04609).
T1 construct: using PSMA-expressing LNCaP cells and ([^125I]I-BA)EuK as standard radioligand; endogenous in cells; host or cells: LNCaP cells
Nature of the series: Competitive binding experiments (IC50) using PSMA-expressing LNCaP cells and ([125I]I-BA)EuK as standard radioligand. The protocol: Competitive binding experiments (IC50) were carried out in accordance with an established protocol ([…]. et al., Eur. J. Nuc. Mol. Med. Imaging Res., 2014, 4, 63) using PSMA-expressing LNCaP cells and ([^125I]I-BA)EuK as standard radioligand.

A further series relates to plasma proteins. Nature of the series: Plasma protein binding. It is filed as in vitro ADME. The protocol: as §1
For series [3], the system named is PC3-Pip xenografts in NSG mice. Nature of the series: In vivo and ex vivo fluorescence imaging of PC3-Pip xenografts in NSG mice. The settings on record: for detectable fluorescence signal: 6 h p.i., 0.1 nmol ligand. The protocol: FIG. 3: In vivo (A) and ex vivo (B) fluorescence imaging of PC3-Pip xenografts in NSG mice using PSMA-HSG (upper two rows), the reference Ac-mas3-Cy5(SO3)—EuK (middle two rows) and Ac-mas3-(SO3)Cy5(SO3)—EuK (lower two rows). Conditions were 2 h p.i. using a peptide dose of 1 nmol/mouse and 6 h p.i. using a peptide dose of 0.1 nmol/mouse, respectively (n=1 per condition). In vivo and ex vivo fluorescence imaging of intact tumors was performed using a clinical-grade fluorescence KARL STORZ Endoscope; fluorescence confocal imaging of 2 mm tumor slices (right) was performed using a Leica SP8 WLL microscope.
In vivo fluorescence imaging of PC3-Pip xenografts in NSG mice (2 h p.i. at a ligand dose of 1 nmol and 6 h p.i. at a ligand dose of 0.1 nmol, respectively; n=1 per compound and condition) was performed using a clinical-grade fluorescence laparoscopy set-up (KARL STORZ Endoskope GMBh & Co. KG). Cy5-based tumor imaging was performed using D-light P system and a prototype modified IMAGE 1 S light source with integrated Cy5 filter (both KARL STORZ Endoskope GMBh & Co. KG). Images were recorded using integrated KARL STORZ software and image processing was performed using in-house developed MATLAB software that provided a signal intensity-based representation of the signal-to-background ratio (SBR; Azargoshasb S. et al., Mol. Imaging Biol., 2022, https://doi.org/10.1007/s11307-022-01736-y; de Barros H. A. et al., Eur. Urol., 2022, 82, 97-105).
Fluorescence Confocal Imaging of Excised Tumor Specimens After in vivo imaging tumor specimens (N=1 per tracer) were excised and cut into 2 mm slices. Prior to imaging, slices were placed on a 35-mm culture dish containing a glass insert (MatTek Co.). Fluorescence confocal imaging was then performed using a Leica SP8 WLL microscope (Leica Microsystems). For assessment of tracer uptake Cy5 settings were used; λex=633 nm, λem=650-700 nm. Images were processed using accompanying LASX software (Leica Application Software Suite 4.8).

Series [4] in a line: Lipophilicity, modified shake-flask method. In kind it is physicochemical. How it is done:
The lipophilicity of [^99mTc]PSMA-HSG, [^99mTc]EuK(SO3)Cy5-mas3 and [^99mTc]EuK(SO3)Cy5(SO3)-mas3 was determined via a modified shake-flask method as described ([…]. et al., Eur. J. Nuc. Mol. Med. Imaging Res., 2014, 4, 63).

A short description of another series: Plasma protein binding. In kind it is in vitro ADME. Particulars: plasma. How it is done: as §1
A short description of series [5]: Biodistribution in LNCaP xenograft bearing NSG mice. In kind it is in vivo. The settings on record: NSG, mouse, in vivo, iv, 0.1 nmol/animal, total radioactivity, Biodistribution: LNCaP tumor. The protocol:
The biodistribution of [^99mTc]PSMA-HSG, [^99mTc]EuK(SO3)Cy5-mas3 and [^99mTc]EuK(SO3)Cy5(SO3)-mas3 was investigated in LNCaP xenograft bearing NSG mice. […] (0.1 nmol-cohort), respectively.
To assess the influence of the different ligand designs of [^99mTc]PSMA-HSG and [^99mTc]mas3-(SO3)Cy5(SO3)—EuK on in vivo PSMA-targeting and general pharmacokinetics, their in vivo biodistribution was investigated in LNCaP xenograft bearing NSG mice in two different experimental settings: • A) at 2 h p.i. using a ligand dose of 1 nmol/animal. These conditions were chosen to allow comparability of the data from this study (Table 3) with previous results in a different tumor model (Hensbergen, A. W. et al., J. Nucl. Med., 2020, 61, 234-241). Here, [^99mTc]mas3-Cy5(SO3)—EuK was additionally included as an internal reference to establish the “missing link” between studies. • B) at 6 h p.i. using a ligand dose of 0.1 nmol/animal (Table 4). The latter settings were adapted to a timeline and dosing with more similarity to the clinical situation (surgery at a later time point, microdosing principle). Of note, however, a ligand amount of 0.1 nmol/mouse (extrapolation: 280 nmol/70 kg patient) still exceeds the potentially applicable clinical dose (48 nmol/70 kg patient for a compound with a molecular weight of −2100 g/mol). Nevertheless, it represents a dose level at which significant competition effects between unlabeled precursor and radioligand for PSMA binding sites in tumor tissue are not probable (Eder A. C. et al., J. Nucl. Med., 2021, 62, 1461-1467; Kalidindi T. M. et al., Eur. J. Nucl. Med. Mol. Imaging, 2021, 48, 2642-2651).

For series [6], the system named is LNCaP xenograft bearing male NSG mice. Nature of the series: Small animal SPECT/CT blocking study with 2-PMPA co-injection. It is filed as in vivo. Particulars: 2-4 h p.i.; 1 nmol; co-injection of 1 μmol 2-PMPA. How it is done:
FIG. 1: Small animal SPECT/CT study in LNCaP xenograft bearing male NSG mice at 2-4 h p.i. […] White arrows indicate the position of the LNCaP xenograft. SPECT/CT images were acquired using an Albira Si PET/SPECT/CT (Bruker Biospin Corporation, Woodbridge, CT, USA) instrument. […] For reconstruction, an ordered subset expectation-maximization algorithm (OSEM) with two iterations was used, and scatter correction was applied. For CT, the following parameters were used: 400 μA intensity and 35 kV voltage, 600 projections. Images were reconstructed using a filtered back-projection (FBP) algorithm with de-ringing correction. Fused representative SPECT/CT images were acquired using the PMOD software (PMOD technologies, version 3.709, Zurich, Switzerland).

Series [7] addresses T1, PSMA. The settings on record: LNCaP cells; reference compounds, assayed under identical conditions (literature cited in table title); # = free mas3-chelator; cited from earlier work.
Setting [8] is: tendency to associate with plasma proteins.

Like-named read-outs stand apart in the source and are kept apart here.

T1 sequence (Q04609 whole entry): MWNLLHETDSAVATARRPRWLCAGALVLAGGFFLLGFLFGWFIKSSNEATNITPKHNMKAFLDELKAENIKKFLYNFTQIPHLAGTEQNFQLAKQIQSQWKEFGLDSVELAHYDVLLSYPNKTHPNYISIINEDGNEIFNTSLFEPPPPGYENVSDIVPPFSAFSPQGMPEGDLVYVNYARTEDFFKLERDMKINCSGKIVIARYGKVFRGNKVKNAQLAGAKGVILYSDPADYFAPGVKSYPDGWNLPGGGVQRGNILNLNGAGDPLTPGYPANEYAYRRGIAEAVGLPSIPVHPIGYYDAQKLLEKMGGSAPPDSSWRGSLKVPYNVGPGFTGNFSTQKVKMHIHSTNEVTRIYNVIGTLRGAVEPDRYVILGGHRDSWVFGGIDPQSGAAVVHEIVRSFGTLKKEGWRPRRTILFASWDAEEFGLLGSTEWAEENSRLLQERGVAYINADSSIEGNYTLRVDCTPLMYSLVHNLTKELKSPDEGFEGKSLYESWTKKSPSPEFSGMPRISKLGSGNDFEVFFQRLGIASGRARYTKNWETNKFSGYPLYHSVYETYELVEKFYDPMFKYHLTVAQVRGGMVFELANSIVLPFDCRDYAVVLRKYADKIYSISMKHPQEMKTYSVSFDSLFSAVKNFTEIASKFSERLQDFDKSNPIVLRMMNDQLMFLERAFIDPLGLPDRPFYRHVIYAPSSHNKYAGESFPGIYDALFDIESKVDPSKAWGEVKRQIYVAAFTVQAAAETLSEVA

Turning to `CC(=O)SCC(=O)N[C@H](CO)C(=O)N[C@H](CO)C(=O)N[C@H](CO)C(=O)NCCCCCC(=O)NCCCCN1/C(=C/C=C/C=C/C2=[N+](CCCCCC(=O)NCCCC[C@H](NC(=O)N[C@@H](CCC(=O)O)C(=O)O)C(=O)O)c3ccc(S(=O)(=O)O)cc3C2(C)C)C(C)(C)c2cc(S(=O)(=O)[O-])ccc21` [Ac-mas3-(SO3)Cy5(SO3)-EuK], in series [1], the “Quantum yield (HSA)” value worked out at 16%, the Brightness (HSA) is 38900 L/mol/cm and the Molar extinction coefficient free dye (HSA) was found to be 243000 L/mol/cm. For the same compound, in series [1] (text b242), the “brightness compared to PSMA-HSG” value is given as “fivefold lower brightness”. Moreover, the “reduction in affinity compared to the mono-sulfonated analog Ac-mas3-Cy5(SO3)-EuK” value on PSMA [2] is given as “almost eight-fold reduction”. This compound yielded an IC50 at PSMA [2] (LNCaP cells, free mas3-chelator, novel compounds) of 131 ± 29 nM. For the same compound, in the series with plasma proteins, the “tendency to associate with plasma proteins” value came out at 77.9%. Besides, the “fluorescence signal in the xenografts” value in series [3] (2 h p.i., ligand dose 1 nmol, in vivo and ex vivo) is on record as “weakest signal”. Moreover, in series [3], the detectable fluorescence signal result was “virtually not detectable”.

Take `C[N+]1=C(/C=C/C=C/C=C2/N(CCCCCC(=O)NCCCC[C@@H](NC(=O)[C@@H](CO)NC(=O)[C@@H](CO)NC(=O)[C@@H](CO)NC(=O)CS)C(=O)N[C@H](Cc3ccc(O)cc3)C(=O)N[C@H](Cc3ccc4ccccc4c3)C(=O)N[C@H](CCCCNC(=O)CCCCCCC(=O)NCCCC[C@H](NC(=O)N[C@@H](CCC(=O)O)C(=O)O)C(=O)O)C(=O)O)c3ccc(S(=O)(=O)O)cc3C2(C)C)C(C)(C)c2cc(S(=O)(=O)[O-])ccc21` [[^99mTc]PSMA-HSG, metal not drawn]: the logP in series [4] is -2.94. Besides, the free fraction (fraction unbound) in “Plasma protein binding” (Plasma Protein Binding (%)) was 0.007; in the series “Plasma protein binding” (setting [8]) it was 0.006. Further, the tissue uptake at 6 h in [5] came out at 17.1 ± 2.9 %ID/g. Moreover, in series [6], the “specificity of tracer uptake in tumor and PSMA-positive tissues” value is given as “PSMA-specific”.

On to `CC(=O)SCC(=O)N[C@H](CO)C(=O)N[C@H](CO)C(=O)N[C@H](CO)C(=O)NCCCCC(=O)NCCCCN1\C(=C/C=C/C=C/C2=[N+](CCCCCC(=O)NCCCC[C@H](NC(=O)N[C@@H](CCC(=O)O)C(=O)O)C(=O)O)c3ccc(S(=O)(=O)[O-])cc3C2(C)C)C(C)(C)c2ccccc21` [Ac-mas3-Cy5(SO3)-EuK], for which, in series [1], the “Quantum yield (HSA)” value is given as 21%, the Brightness (HSA) came to 33800 L/mol/cm and the Molar extinction coefficient free dye (HSA) was 161000 L/mol/cm. The same compound showed a fraction unbound in the series “Plasma protein binding” (setting [8]) of 0.028. The detectable fluorescence signal entry in series [3] is listed as “weak”. For the same compound, at PSMA [7], the IC50 was 17.8 ± 2.9 nM.

Usually IC50 stands for the concentration that inhibits the measured activity by half. Broadly, the logP is a log measure of how a compound divides between an organic and an aqueous phase. The term fraction unbound denotes free concentration divided by total concentration. A higher fraction unbound goes with much free substance. As a reminder, the tissue uptake is the share of the injected amount in each gram of the tissue.
